Laboratory results: publication PMC11106242, “Homozygous EPRS1 missense variant causing hypomyelinating leukodystrophy-15 alters variant-distal mRNA m^6A site accessibility” (Nature Communications, 2024)

Target: the molecule itself
Assay: SEC; Superdex 200 size-exclusion column pre-calibrated with Bio-Rad gel-filtration standards, in purification buffer (50 mM Tris-HCl pH 8.0, 100 mM NaCl, 10% glycerol); monomer to dimer

Row | Protein | stoichiometry N
1 | Wild-type ProRS fragment of human EPRS1 (aa 930-1512) (domain or fragment, UniProt P07814 930-1512, looked up, ProRS fragment of human EPRS1 (glutamyl-prolyl-tRNA synthetase), aa 930-1512, subcloned in pTRC-HisB; also called recombinant WT ProRS; ProRS domain; source: E. coli BL21 Codon-plus (DE3)RIPL, purified (HisTrap HP column)) IAVQELLQLKAQYKSLIGVEYKPVSATGAEDKDKKKKEKENKSEKQNKPQKQNDGQRKDPSKNQGGGLSSSGAGEGQGPKKQTRLGLEAKKEENLADWYSQVITKSEMIEYHDISGCYILRPWAYAIWEAIKDFFDAEIKKLGVENCYFPMFVSQSALEKEKTHVADFAPEVAWVTRSGKTELAEPIAIRPTSETVMYPAYAKWVQSHRDLPIKLNQWCNVVRWEFKHPQPFLRTREFLWQEGHSAFATMEEAAEEVLQILDLYAQVYEELLAIPVVKGRKTEKEKFAGGDYTTTIEAFISASGRAIQGGTSHHLGQNFSKMFEIVFEDPKIPGEKQFAYQNSWGLTTRTIGVMTMVHGDNMGLVLPPRVACVQVVIIPCGITNALSEEDKEALIAKCNDYRRRLLSVNIRVRADLRDNYSPGWKFNHWELKGVPIRLEVGPRDMKSCQFVAVRRDTGEKLTVAENEAETKLQAILEDIQVTLFTRASEDLKTHMVVANTMEDFQKILDSGKIVQIPFCGEIDCEDWIKKTTARDQDLEPGAPSMGAKSLCIPFKPLCELQPGAKCVCGKNPAKYYTLFGRSY | 2
2 | P1482T mutant ProRS fragment of human EPRS1 (aa 930-1512) (domain or fragment, UniProt P07814 930-1512, looked up, The substitution is a natural patient variant; also called Pro1482Thr ProRS; P1482T ProRS; source: E. coli BL21 Codon-plus (DE3)RIPL, purified (HisTrap HP column)) IAVQELLQLKAQYKSLIGVEYKPVSATGAEDKDKKKKEKENKSEKQNKPQKQNDGQRKDPSKNQGGGLSSSGAGEGQGPKKQTRLGLEAKKEENLADWYSQVITKSEMIEYHDISGCYILRPWAYAIWEAIKDFFDAEIKKLGVENCYFPMFVSQSALEKEKTHVADFAPEVAWVTRSGKTELAEPIAIRPTSETVMYPAYAKWVQSHRDLPIKLNQWCNVVRWEFKHPQPFLRTREFLWQEGHSAFATMEEAAEEVLQILDLYAQVYEELLAIPVVKGRKTEKEKFAGGDYTTTIEAFISASGRAIQGGTSHHLGQNFSKMFEIVFEDPKIPGEKQFAYQNSWGLTTRTIGVMTMVHGDNMGLVLPPRVACVQVVIIPCGITNALSEEDKEALIAKCNDYRRRLLSVNIRVRADLRDNYSPGWKFNHWELKGVPIRLEVGPRDMKSCQFVAVRRDTGEKLTVAENEAETKLQAILEDIQVTLFTRASEDLKTHMVVANTMEDFQKILDSGKIVQIPFCGEIDCEDWIKKTTARDQDLEPGAPSMGAKSLCITFKPLCELQPGAKCVCGKNPAKYYTLFGRSY | 2
